# Laboratory results: patent publication US5840683A, “Peptides inhibiting the oncogenic action of p21 ras” (Innapharma, Inc., dated 1998)
# T1: human oncogenic ras p21 (human)
# T1 chain: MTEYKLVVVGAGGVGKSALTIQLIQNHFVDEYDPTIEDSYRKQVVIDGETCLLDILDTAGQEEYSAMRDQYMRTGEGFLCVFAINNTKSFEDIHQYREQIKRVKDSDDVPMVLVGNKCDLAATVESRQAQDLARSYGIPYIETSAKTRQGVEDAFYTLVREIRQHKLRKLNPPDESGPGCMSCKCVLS
# Target: T1, human oncogenic ras p21
# Assay: cell-based or functional assay
# Conditions: not given
row,Molecule,Present Inhibition of ras-Induced Maturation [%]
1,"DLAA [peptide of SEQ ID NO:4, Asp-Leu-Ala-Ala]",22
2,VVI [Val-Val-Ile],34
3,"IKRVKD [peptide of SEQ ID NO:1, Ile-Lys-Arg-Val-Lys-Asp]",76
4,KRV [Lys-Arg-Val],22
5,"TIEDSYRKQVVID [peptide of SEQ ID NO:6, Thr-Ile-Glu-Asp-Ser-Tyr-Arg-Lys-Gln-Val-Val-Ile-Asp]",28
6,"YREQIKRVKDSDDVP [peptide of SEQ ID NO:7, Tyr-Arg-Glu-Gln-Ile-Lys-Arg-Val-Lys-Asp-Ser-Asp-Asp-Val-Pro]",56
7,"CDLAART [peptide of SEQ ID NO:9, Cys-Asp-Leu-Ala-Ala-Arg-Thr]",65
8,"GNKCDLAARTVE [peptide of SEQ ID NO:8, Gly-Asn-Lys-Cys-Asp-Leu-Ala-Ala-Arg-Thr-Val-Glu]",92
9,"KCDLA [peptide of SEQ ID NO:2, Lys-Cys-Asp-Leu-Ala]",38

# Tested on: oncogenic ras-p-21
# Assay: not given
# Conditions: background statement; cited from earlier work
row,Molecule,inhibition of oncogenic ras-p-21
1,N[C@@H](Cc1ccc(O)cn1)C(=O)O [Azatyrosine],strongly inhibits
